Measured values taken from article PMC5399792.

Tests used:
[1] = target: T1, influenza B polymerase (PA-PB1-PB2 heterotrimer, FluB) (Influenza B virus, UniProt Q5V8Z9;Q5V8Y6;Q5V8X3 1-726;1-752;1-770); assay: fluorescence anisotropy; 1:1 stoichiometry; details: protein: recombinant, copies: 1;1;1
[2] = target: T1, influenza B polymerase (PA-PB1-PB2 …); assay: FRET / fluorescence titration; details: protein: recombinant; copies: 1;1;1; label: 3'-FAM-Ex-5 on v5'; 5'-Cy3 on v3' (implied by FRET)
[3] = target: T1, influenza B polymerase (PA-PB1-PB2 …); assay: X-ray crystallography (3.8 A); details: protein: recombinant, copies: 1;1;1
[4] = label: FAM-Ex-5, 5' hook hairpin on polymerase

AGCAGAAGCAGAGGUAUA (ssRNA) [c5' 1-18] showed a Kd [1, 4] of under 10 nM.

For UAUACCUCUGCUUCUGCU (ssRNA) [v3' 1-18], the Kd ([1]; label: 5'-FAM-Ex-5, single strand) was under 10 nM.

B1: v5' 1-10 + v3' 1-18 (mixed)
RNA 1: AGUAGUAACA
RNA 2: UAUACCUCUGCUUCUGCU
B1: binds [2].

AGUAGUAACA (ssRNA) [v5' 1-10] was tested, and the Kd ([1]; label: 3'-FAM-Ex-5, 5' hook hairpin on polymerase) was under 10 nM.

Binder AGUAGUAACAAGAGGGUA (ssRNA) [v5' 1-18] has a Kd [1, 4] of under 10 nM.

UACCCUCUUGUUACUACU (ssRNA) [c3' 1-18] showed a Kd ([1]; label: FAM-Ex-5, single strand) of under 10 nM.

AAUCUAUAAUAGC (ssRNA, 5'-m7Gppp cap) [capped 13-mer primer]: binds ([3]; single strand).

B2: vRNA promoter v5' 1-14 + v3' 1-18 (crystal) (structured_RNA)
RNA 1: AGUAGUAACAAGAG
RNA 2: UAUACCUCUGCUUCUGCU
modifications: 5'-monophosphate on v5'
B2: binds [3].
